Measurements reported in the domain aggregation screens of Martell et al. (2025).

Experiment: soluble fraction after stress (log2 fold change); higher = more stays soluble; pooled small domains, quantitative proteomics
Details: stress: 75 degC
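Further: 20 min heating vs room temperature control held 20 min.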

Sequence | soluble fraction (log2)
HMQNGNYVVQRQDSLWSIAARISGQTHQPIGEVMNHIKALNEHAFVGGNVNRLRTGTNLNLG | -0.224
HMQNKRQEQLLALLAERRDYMTSRQLAEILQVSDRTIRSDVEAINRRSSPPPIESNVRQGYRLNPEA | -0.142
HMQNNIEFTVLEEDAQKRLDVLLSEKTALSRSASASLIEEGGVLVNGRKEPKKYKPVRGEIITAILPE | 0.504
HMQNNTIAFSKFLQEVDNGRVVQVEIQGNNINGILSDGSKFNTYSPNYPALVEKLSEKNVNIVASPV | 0.0941
HMQNPDHLLALAAAAQAAIELGRPDEAEAYYRHLVEVYGVEMASQKPEYLDHSGITNDLRNVAEGFLVG | -1.06
HMQNRIVNTTQGLAADKRGLLVADETGHTTRPGIFASGDVVNGARTVVEAVAHSKIVAESMHQYMQ | 0.654
HMQNSLKAFRVKRGLTTSALSRLTNGEFSTSRISNYETGVRALTIDAAKKLAPHLGASPAQLLNL | -0.694
HMQNSPVFAASDIEDIRVGMTVEHQRFGQGRVMSIEGNGPNKKTTVLFEGIGEKQLLLQYAKLKIV | -0.664
HMQNYLLFEEAKNIVNTLNLTNEKDWSEFIKKDFTYKNQIPIFPNQYYKHKGWVDWNDWLGINK | -1.35
HMQNYTTIIGVIELRLNDISYDNVRKRYHIGRSGITLIMDRYRDSGLSLEDLKQMTPEKVVDLFYPR | -2.55
HMQPAALEAQVIKLVRLHAPIKARQLATILANEFGQHVDRSTVNSLLYQLRAQGKVAQNAAYQWSLT | -2.01
HMQPEKELAPLIGQRVSVRLHDGDGGYRDLLGELESPDSIRKKNGEIAFFDPAKIAALRVVV | 0.0667
HMQPGDRVDALIVGVSGEHVFLDVGGKSEGVMAAAELRNEAGELSAAEGDRVQVYLLSNRNGELIFTA | 0.205
HMQPHLSADEEHLLKILGSDTMHIDALVKRSTLETSNALAALAFLEMKGLVKNIGNMHYIRTYR | -0.552
HMQPIAVHIGTENPMKSLSDLSVVRAQFTSGGRVIGSVAVLGPTRMQYSRIVGMMRFMQQRLDLLLKG | -0.0629
HMQPKKLNMYYDYVRQLLESHPYLSAAQIEDRLKEEFTELPMVHSKTVFNFVENIRLQHGINKHA | -0.219
HMQPLRQGDFVTSEVVKVQDGTAVLRTAQGTLLSASLTGNLGLLPGDRVETVVVEASPGRFVLRVLDIIR | -0.747
HMQPPLTPRELGVLQWAAEGKTTRDTSAILQIHQRTVEMHLKSAREKLDALNTTHAVARALAHGFILPPS | -0.0091
HMQPPVDGNEIMEIFGIKGSPVIGVIKSTIKNAILDGIIAPNDREAALELMFRIADENGLKPVVTQTQ | -0.0513
HMQPRYMLIKTAILDAIERGEMKPGSQVPSENQLAQQHNVSRMTARRALSEMVDDGILMRSQGIGTFVSD | -0.228
HMQPSFFEMIRMVESYIKQHFENVGNEFPEIARAIYYGIEEERNIYGTASREDMEELLDEGIPILPVP | -0.914
HMQPVEHLPTTDPLTTSAASEHERYEKVRWWLEEMQRTYETGDEVRAERIRLSLIEQMYKWEGE | -0.513
HMQPYTYNPNFLSDYRAYSLGIPLEAYDKLVQFRASGSFVNSMSDFQKITGVSDSLLAVLHSKFRYPK | -0.826
HMQQELEEMESGNLVRTAIDSLPINQRTAFILSAYEELPIKEIASIMNRSEGAVEQLLQRAKMNLKKKIK | 0.233
HMQQLTDRELEVLRLLAAGLSNNKIGEKLYISATTAKFHVSNIMRKLEVSRRAEAVYAASKRGL | -2.26
HMQQLTQRELTLLRLLANGYNNRQIAEQLQLAESTVKNNLSALFQKIGVRDRTQAVLFAISQGLVP | -1.04
HMQQNDMTELRALAEKIISENDSVINDYKSGQGSALQFLIGQAMKETKGSANPQVISEIFTDLL | -0.354
HMQQPIPGEAYLTRRPGSDHFQIAFTIDGHRVRESSGTSDKVAAAALAQKRYEEVWREIKLGEK | -0.0824

Sequence | soluble fraction (log2)
HMQQPVAYSEFVQSVNDRQIREAQIQGERIVATDNNGNRMTVIWPENDTKLLDELVQNGVLTSIQE | 0.116
HMQQVDWGSVFGDFGTMFKDQLQPTIDRLRRMAQSDTFRQSSLEEQQILYSLIEKLERSGTA | -1.89
HMQQVIEGLDSDRDFITVPEAIALFAVGRQTLYHYIRSGKIPSVNLGQRLTRLSKKQLGELFPLR | -1.97
HMQRGRTFSIVLNWKGRLLSTQMFFPQFTRPTKEQVTFEINKVYPGAMVYYYNPIEKDPSQPLV | -2.26
HMQRLSRREIEVLHWIAEGKSDWQIGQILSISAKTVNYHTENLKRKFGVATRMQAVVSAIKQGAFVPGE | -4.11
HMQRVSDKVAAQLRVLVQEQQLKPGDRLPAERALAVQLGVSRTALREAIAQLASQGLLTARVGGGTYVAEP | -1.08
HMQRYVVDENLKLDKKDINHIINVMRLNVNDQIKLINNGTIYDAIITKIEKNNVLYEIIKKEESK | -0.661
HMQSANQLIKLSRKRKGLTQQELADQAGVSLRTVQRIEKGTEEISGFSLKQISQILEIPLEQLIM | -0.652
HMQSLDGPSRAAIVLMAIGPDVAGELIKSFSPAEAQKVSSLLATVRSLDREVMIEVLDSFKNITEH | -0.339
HMQSLPFSFAKRHGVLLKSINHLHGEAVYRIGANPLSLSEVQRYAGVPLKLSSITVEKFDRLLQETYEHD | -1.17
HMQSLSDQVFFYLKERIINNEMVPGSIISIEKLTSEFGISNTPVREAIVRLAGLDLVTIHRNKNITVS | -2.19
HMQSMSADDWSEKARVLMSAGIIVMGQEAKEKILNLKSLVPLIEAASASNVSMIDSRTFDELLMIIP | -2.46
HMQSREISYSEFVTAVEAGDVRNVTLDGEQVRFRRADGSDYVTIRPEDAEVTKLLMANDIPVRAEP | 0.116
HMQSRRTPASLVERVRQLNGQYQDKEIAELLNREGIKTAHGNEFNAKRIEMIRRHNGISKHSAQ | -0.075
HMQSSTAISFNQFQKSWLSNNIKSFQLGEDKMTVRGSLKNGTQYETIVPSERLFQFIGQHPKDGQVQEMY | 0.0453
HMQSTEQVSVTVTIPPGGELRIDSDTFRVLLNGENVLDKQSGDWLMLSRDLLYLDIESAIGNGLSGNLIYT | 0.486
HMQSVEELLDAIGDERLLHILLEADRKTLQIVVLKMMGYAPKEIGSHIGMPEQTVYTKLRRLREKIKKI | -1.65
HMQSYHVGDKVTIKNSASHWATGQSIYNGVKGHTYKIIQTNGHKLLLDQVISWINDGDVYKAGS | -0.497
HMQSYSTIIGVIELRLSGIGYRTTKARYGIGNSTVTLIMNRFKETGFTLDDLKTMEPTKVEALFYPP | -1.36
HMQSYSYYDFQKALQNKTVESVIIEPDKTVPTGTLQIQLKGDTKEELNVSDVTEVEELLQSYDVDYKLRSV | 0.0732
HMQTASVRFADGQLEVKQKGLQRVSVYSLNGMTVANKAVQGQDYVTISLPRAAYIVKITTQNGSFTKVI | -2.18
HMQTGRREALEAQLRETGGEAMLARLREIDPEAAARLHPADEKRVIRALEVYEETGKTITQHNLETKAVPP | 0.309
HMQTKEVDYGTFMSMIDEKNIGTVEIGDSQIVFTDKDNKNLYETGVMNDPDLAQRLHDAGATFSS | 0.128
HMQTLQTTSLRVSENQLFILDQQALPQEKRWLAADNVALLVDHIHTLRVRGAPLIGLSASLLLALLAGRLT | 0.0717
HMQTMNKTNISNFEKYLNSGDVSEVIVVRNKSSVRVTLTPEALRSSEHQAVVGKNILGQENIKGPHYQFEV | -0.0414
HMQTPPGRYRHYKGGLYEVIATARHSETLEPMTVYRALYGEQGLWVRPAAMFAEDITLEGVRQPRFARI | -2.39
HMQTRIDISDAVLQWVVRKTQFAALPPKAAAHLTKWVRGEKKPTFNQLEEVSKATGIPLGYFFLQQPPHE | -2.19
